Measurements taken from the RNAGym collection of RNA variant scans (doi:10.1021/acssynbio.7b00057).

B1: Pistol ribozyme (parent)
chain: GGGUCGUUGUUCCAUAAUCGCGUGGAUAUGGCACGCAAGUUUCUACCGGGCACCGUAAAUGUCCGACUGGAGCCGUUCGGGCGGCUAUAAACAGACCUCAGGCCCGAAGCGUGGCGGCACCUGCCGCCGGUGGUAAAAAAGAUCGGAAGAGCACACGUCU

Variants of: B1
Test: aptazyme ON/OFF ratio, guanine; higher = stronger switching; co-transcriptional cleavage with and without guanine

| Variant | aptazyme ON/OFF ratio |
| --- | --- |
| GGGUCGCCAGAGAAUAAUCGCGUGGAUAUGGCACGCAAGUUUCUACCGGGCACCGUAAAUGUCCGACUGGAGCCGUUCGGGCGGCUAUAAACAGACCUCAGGCCCGAAGCGUGGCGGCACCUGCCGCCGGUGGUAAAAAAGAUCGGAAGAGCACACGUCU | 1.19 |
| GGGUCGCCAGAGGAUAAUCGCGUGGAUAUGGCACGCAAGUUUCUACCGGGCACCGUAAAUGUCCGACUGGAGCCGUUCGGGCGGCUAUAAACAGACCUCAGGCCCGAAGCGUGGCGGCACCUGCCGCCGGUGGUAAAAAAGAUCGGAAGAGCACACGUCU | 1.2 |
| GGGUCGCCAGAGUAUAAUCGCGUGGAUAUGGCACGCAAGUUUCUACCGGGCACCGUAAAUGUCCGACUGGAGCCGUUCGGGCGGCUAUAAACAGACCUCAGGCCCGAAGCGUGGCGGCACCUGCCGCCGGUGGUAAAAAAGAUCGGAAGAGCACACGUCU | 1.11 |
| GGGUCGCCAGUCUAUAAUCGCGUGGAUAUGGCACGCAAGUUUCUACCGGGCACCGUAAAUGUCCGACUGGAGCCGUUCGGGCGGCUAUAAACAGACCUCAGGCCCGAAGCGUGGCGGCACCUGCCGCCGGUGGUAAAAAAGAUCGGAAGAGCACACGUCU | 1.37 |
| GGGUCGCCAGUCAAUAAUCGCGUGGAUAUGGCACGCAAGUUUCUACCGGGCACCGUAAAUGUCCGACUGGAGCCGUUCGGGCGGCUAUAAACAGACCUCAGGCCCGAAGCGUGGCGGCACCUGCCGCCGGUGGUAAAAAAGAUCGGAAGAGCACACGUCU | 1.27 |
| GGGUCGCCAGUCGAUAAUCGCGUGGAUAUGGCACGCAAGUUUCUACCGGGCACCGUAAAUGUCCGACUGGAGCCGUUCGGGCGGCUAUAAACAGACCUCAGGCCCGAAGCGUGGCGGCACCUGCCGCCGGUGGUAAAAAAGAUCGGAAGAGCACACGUCU | 1.12 |
| GGGUCGCCAGAGCAUAAUCGCGUGGAUAUGGCACGCAAGUUUCUACCGGGCACCGUAAAUGUCCGACUGGAGCCGUUCGGGCGGCUAUAAACAGACCUCAGGCCCGAAGCGUGGCGGCACCUGCCGCCGGUGGUAAAAAAGAUCGGAAGAGCACACGUCU | 1.17 |
| GGGUCGCCAGAUCAUAAUCGCGUGGAUAUGGCACGCAAGUUUCUACCGGGCACCGUAAAUGUCCGACUGGAGCCGUUCGGGCGGCUAUAAACAGACCUCAGGCCCGAAGCGUGGCGGCACCUGCCGCCGGUGGUAAAAAAGAUCGGAAGAGCACACGUCU | 1.11 |
| GGGUCGCCAGAACAUAAUCGCGUGGAUAUGGCACGCAAGUUUCUACCGGGCACCGUAAAUGUCCGACUGGAGCCGUUCGGGCGGCUAUAAACAGACCUCAGGCCCGAAGCGUGGCGGCACCUGCCGCCGGUGGUAAAAAAGAUCGGAAGAGCACACGUCU | 1.37 |
| GGGUCGCCAGACCAUAAUCGCGUGGAUAUGGCACGCAAGUUUCUACCGGGCACCGUAAAUGUCCGACUGGAGCCGUUCGGGCGGCUAUAAACAGACCUCAGGCCCGAAGCGUGGCGGCACCUGCCGCCGGUGGUAAAAAAGAUCGGAAGAGCACACGUCU | 1.16 |
| GGGUCGCCAGAUAAUAAUCGCGUGGAUAUGGCACGCAAGUUUCUACCGGGCACCGUAAAUGUCCGACUGGAGCCGUUCGGGCGGCUAUAAACAGACCUCAGGCCCGAAGCGUGGCGGCACCUGCCGCCGGUGGUAAAAAAGAUCGGAAGAGCACACGUCU | 1.19 |
| GGGUCGCCAGAUGAUAAUCGCGUGGAUAUGGCACGCAAGUUUCUACCGGGCACCGUAAAUGUCCGACUGGAGCCGUUCGGGCGGCUAUAAACAGACCUCAGGCCCGAAGCGUGGCGGCACCUGCCGCCGGUGGUAAAAAAGAUCGGAAGAGCACACGUCU | 1.19 |
| GGGUCGCCAGAAGAUAAUCGCGUGGAUAUGGCACGCAAGUUUCUACCGGGCACCGUAAAUGUCCGACUGGAGCCGUUCGGGCGGCUAUAAACAGACCUCAGGCCCGAAGCGUGGCGGCACCUGCCGCCGGUGGUAAAAAAGAUCGGAAGAGCACACGUCU | 1.2 |
| GGGUCGCCAGAAUAUAAUCGCGUGGAUAUGGCACGCAAGUUUCUACCGGGCACCGUAAAUGUCCGACUGGAGCCGUUCGGGCGGCUAUAAACAGACCUCAGGCCCGAAGCGUGGCGGCACCUGCCGCCGGUGGUAAAAAAGAUCGGAAGAGCACACGUCU | 1.16 |
| GGGUCGCCAGAAAAUAAUCGCGUGGAUAUGGCACGCAAGUUUCUACCGGGCACCGUAAAUGUCCGACUGGAGCCGUUCGGGCGGCUAUAAACAGACCUCAGGCCCGAAGCGUGGCGGCACCUGCCGCCGGUGGUAAAAAAGAUCGGAAGAGCACACGUCU | 1.17 |
| GGGUCGCCAGUUGAUAAUCGCGUGGAUAUGGCACGCAAGUUUCUACCGGGCACCGUAAAUGUCCGACUGGAGCCGUUCGGGCGGCUAUAAACAGACCUCAGGCCCGAAGCGUGGCGGCACCUGCCGCCGGUGGUAAAAAAGAUCGGAAGAGCACACGUCU | 1.16 |
| GGGUCGCCAGUUUAUAAUCGCGUGGAUAUGGCACGCAAGUUUCUACCGGGCACCGUAAAUGUCCGACUGGAGCCGUUCGGGCGGCUAUAAACAGACCUCAGGCCCGAAGCGUGGCGGCACCUGCCGCCGGUGGUAAAAAAGAUCGGAAGAGCACACGUCU | 1.42 |
| GGGUCGCCAGUUAAUAAUCGCGUGGAUAUGGCACGCAAGUUUCUACCGGGCACCGUAAAUGUCCGACUGGAGCCGUUCGGGCGGCUAUAAACAGACCUCAGGCCCGAAGCGUGGCGGCACCUGCCGCCGGUGGUAAAAAAGAUCGGAAGAGCACACGUCU | 1.15 |
